Biological target: PD1 on PD1+LAG3+ human U2OS cells (UniProt Q15116 25-288)
Test: cellular PD1/LAG3 dimerization assay on PD1+LAG3+ U2OS cells, chemoluminescence; the signal needs PD1 and LAG3 bound at once
Protocol: For this specific interaction, the cytosolic C-terminal ends of both receptors were individually fused to heterologous subunits of a reporter enzyme.
On the next day cell medium was discarded and replaced by fresh medium. Antibody or ligand dilutions were prepared and titrated amounts of indicated (bispecific) antibodies were added and incubated at 37° C. for 2 hours. Next, a substrate/buffer mix (e.g. PathHunterFlash detection reagent) was added and again incubated for 1h. For measuring chemoluminescence induced upon simultaneous binding and dimerization a Tecan infinite reader was used.

PD1 on PD1+LAG3+ human U2OS cells, sequence (Q15116 25-288): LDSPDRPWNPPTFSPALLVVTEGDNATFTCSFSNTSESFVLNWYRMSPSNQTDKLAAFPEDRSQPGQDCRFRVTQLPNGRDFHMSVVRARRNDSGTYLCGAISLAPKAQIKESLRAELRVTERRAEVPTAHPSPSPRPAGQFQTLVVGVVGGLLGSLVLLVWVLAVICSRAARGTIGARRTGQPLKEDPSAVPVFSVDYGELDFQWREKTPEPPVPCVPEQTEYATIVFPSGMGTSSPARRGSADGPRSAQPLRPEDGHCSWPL

- EC50 (read off the curve): ~0.4 µg/mL
B1: 0918 (bispecific antibody, human IgG1, kappa, L234A L235A)
heavy chain 1 (aLAG3 25F7 heavy chain, hole, with PD1 0376 VH at the C-terminus): QVQLQQWGAGLLKPSETLSLTCAVYGGSFSDYYWNWIRQPPGKGLEWIGEINHNGNTNSNPSLKSRVTLSLDTSKNQFSLKLRSVTAADTAVYYCAFGYSDYEYNWFDPWGQGTLVTVSSASTKGPSVFPLAPSSKSTSGGTAALGCLVKDYFPEPVTVSWNSGALTSGVHTFPAVLQSSGLYSLSSVVTVPSSSLGTQTYICNVNHKPSNTKVDKKVEPKSCDKTHTCPPCPAPEAAGGPSVFLFPPKPKDTLMISRTPEVTCVVVDVSHEDPEVKFNWYVDGVEVHNAKTKPREEQYNSTYRVVSVLTVLHQDWLNGKEYKCKVSNKALGAPIEKTISKAKGQPREPQVCTLPPSRDELTKNQVSLSCAVKGFYPSDIAVEWESNGQPENNYKTTPPVLDSDGSFFLVSKLTVDKSRWQQGNVFSCSVMHEALHNHYTQKSLSLSPGGGGGSGGGGSGGGGSGGGGSEVQLLESGGGLVQPGGSLRLSCAASGFSFSSYTMSWVRQAPGKGLEWVATISGGGRDIYYPDSVKGRFTISRDNSKNTLYLQMNSLRAEDTAVYYCVLLTGRVYFALDSWGQGTLVTVSS
heavy chain 2 (aLAG3 25F7 heavy chain, knob, with PD1 0376 VL at the C-terminus): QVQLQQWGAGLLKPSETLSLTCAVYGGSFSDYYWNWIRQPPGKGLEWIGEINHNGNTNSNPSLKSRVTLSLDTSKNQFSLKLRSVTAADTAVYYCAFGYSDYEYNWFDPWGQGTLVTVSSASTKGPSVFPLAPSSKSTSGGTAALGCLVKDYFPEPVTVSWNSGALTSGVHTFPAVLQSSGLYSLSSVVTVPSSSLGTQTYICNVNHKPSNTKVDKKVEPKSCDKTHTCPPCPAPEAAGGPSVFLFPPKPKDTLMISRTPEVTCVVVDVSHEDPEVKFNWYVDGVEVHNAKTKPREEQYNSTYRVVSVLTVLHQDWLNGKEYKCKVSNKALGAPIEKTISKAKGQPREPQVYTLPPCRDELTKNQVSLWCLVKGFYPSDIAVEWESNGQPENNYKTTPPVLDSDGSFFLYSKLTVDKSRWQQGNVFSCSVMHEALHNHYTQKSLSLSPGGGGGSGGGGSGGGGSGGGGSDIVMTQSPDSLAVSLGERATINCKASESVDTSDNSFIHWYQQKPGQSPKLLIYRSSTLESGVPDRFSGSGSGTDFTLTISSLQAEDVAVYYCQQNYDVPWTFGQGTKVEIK
light chain (aLAG3 25F7): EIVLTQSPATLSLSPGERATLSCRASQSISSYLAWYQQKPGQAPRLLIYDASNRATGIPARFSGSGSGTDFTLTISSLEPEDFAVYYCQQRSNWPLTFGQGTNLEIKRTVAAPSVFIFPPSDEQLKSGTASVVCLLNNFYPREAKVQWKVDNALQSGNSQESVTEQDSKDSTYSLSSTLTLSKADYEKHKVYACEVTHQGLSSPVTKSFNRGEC
notes: also called PD1/LAG3 0918

Source: patent publication US20220387586A1 (Hoffmann-La Roche, published 2022)
